Laboratory results published in PMC13354579.

What was measured:
K48-linked triubiquitin = K48-linked triubiquitin (UniProt P0CG48); test: ITC; MicroCal PEAQ-ITC, 25 °C, 50 mM Tris-HCl pH 7.5, 150 mM NaCl, 250 µM TCEP; DUB in the syringe titrated into K48-linked polyUb in the cell, in other experiments the scarcest species in the cell; n = 2, mean ± SD
[1] = molecular target: full-length MINDY3 (human) (UniProt Q9H8M7); test: as above
Sequence of full-length MINDY3 (human) (Q9H8M7 whole entry): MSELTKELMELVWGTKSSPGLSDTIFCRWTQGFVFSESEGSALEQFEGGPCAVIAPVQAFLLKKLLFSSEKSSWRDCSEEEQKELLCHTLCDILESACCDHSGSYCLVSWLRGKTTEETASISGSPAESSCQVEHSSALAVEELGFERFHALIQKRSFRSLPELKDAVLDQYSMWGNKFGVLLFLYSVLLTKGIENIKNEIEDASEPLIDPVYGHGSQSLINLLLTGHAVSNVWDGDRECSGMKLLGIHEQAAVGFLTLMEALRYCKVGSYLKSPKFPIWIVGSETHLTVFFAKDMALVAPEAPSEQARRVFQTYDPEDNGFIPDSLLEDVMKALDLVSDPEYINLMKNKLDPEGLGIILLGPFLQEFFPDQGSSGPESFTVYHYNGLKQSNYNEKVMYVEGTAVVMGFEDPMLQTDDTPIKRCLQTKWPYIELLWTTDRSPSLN

Substance	Kd (K48-linked triubiquitin) [µM]	Kd [1] [µM]	dH [1] [kJ/mol]
MINDY3^EF-hand (from UniProt Q9H8M7 297-370) (domain or fragment)	6	–	–
full-length RAD23A (from UniProt P54725 1-363) (natural protein)	–	12.2	-4.84
